The target in the assay is wild-type human APOBEC3G with a fused HA tag at the C-terminus (human) (UniProt Q9HC16). The assay is described as follows: co-immunoprecipitation with anti-HA from 293T cell lysate, Western blot with anti-CA; ratio normalized to hGag. In general terms: In western blotting, separated proteins are transferred to a membrane and probed.
wild-type human APOBEC3G with a fused HA tag at the C-terminus (human), sequence (Q9HC16 whole entry, the tested form may be a part): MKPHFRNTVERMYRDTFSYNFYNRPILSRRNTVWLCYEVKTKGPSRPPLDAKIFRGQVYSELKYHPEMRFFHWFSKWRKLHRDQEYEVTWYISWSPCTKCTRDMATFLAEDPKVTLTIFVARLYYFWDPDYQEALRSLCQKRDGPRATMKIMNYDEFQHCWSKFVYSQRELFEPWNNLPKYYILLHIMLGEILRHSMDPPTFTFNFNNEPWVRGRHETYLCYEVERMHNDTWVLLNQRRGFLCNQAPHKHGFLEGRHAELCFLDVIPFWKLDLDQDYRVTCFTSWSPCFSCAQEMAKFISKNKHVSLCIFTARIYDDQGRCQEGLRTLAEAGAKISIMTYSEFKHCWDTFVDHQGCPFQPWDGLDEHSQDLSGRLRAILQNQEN

With “hGag deletion mutant Δ378-500 (from UniProt P04585 1-377)”, the reduction in the interaction of Gag with APOBEC3G against hGag was above 95%.

(Values after patent publication US20060002951A1.)
